This experiment addresses T1, mouse Factor H (FH from mouse, MyBiosource) (mouse, UniProt P06909 19-1234).
T1 construct: Bought protein, coated on microtiter wells; also called mouse FH
Kind of experiment: quantitative ELISA, mouse FH coated, GST-tagged protein (0.03125-2 µM) detected with anti-GST. On the technique in general: ELISA stands for enzyme-linked immunosorbent assay.

T1 sequence (P06909 19-1234): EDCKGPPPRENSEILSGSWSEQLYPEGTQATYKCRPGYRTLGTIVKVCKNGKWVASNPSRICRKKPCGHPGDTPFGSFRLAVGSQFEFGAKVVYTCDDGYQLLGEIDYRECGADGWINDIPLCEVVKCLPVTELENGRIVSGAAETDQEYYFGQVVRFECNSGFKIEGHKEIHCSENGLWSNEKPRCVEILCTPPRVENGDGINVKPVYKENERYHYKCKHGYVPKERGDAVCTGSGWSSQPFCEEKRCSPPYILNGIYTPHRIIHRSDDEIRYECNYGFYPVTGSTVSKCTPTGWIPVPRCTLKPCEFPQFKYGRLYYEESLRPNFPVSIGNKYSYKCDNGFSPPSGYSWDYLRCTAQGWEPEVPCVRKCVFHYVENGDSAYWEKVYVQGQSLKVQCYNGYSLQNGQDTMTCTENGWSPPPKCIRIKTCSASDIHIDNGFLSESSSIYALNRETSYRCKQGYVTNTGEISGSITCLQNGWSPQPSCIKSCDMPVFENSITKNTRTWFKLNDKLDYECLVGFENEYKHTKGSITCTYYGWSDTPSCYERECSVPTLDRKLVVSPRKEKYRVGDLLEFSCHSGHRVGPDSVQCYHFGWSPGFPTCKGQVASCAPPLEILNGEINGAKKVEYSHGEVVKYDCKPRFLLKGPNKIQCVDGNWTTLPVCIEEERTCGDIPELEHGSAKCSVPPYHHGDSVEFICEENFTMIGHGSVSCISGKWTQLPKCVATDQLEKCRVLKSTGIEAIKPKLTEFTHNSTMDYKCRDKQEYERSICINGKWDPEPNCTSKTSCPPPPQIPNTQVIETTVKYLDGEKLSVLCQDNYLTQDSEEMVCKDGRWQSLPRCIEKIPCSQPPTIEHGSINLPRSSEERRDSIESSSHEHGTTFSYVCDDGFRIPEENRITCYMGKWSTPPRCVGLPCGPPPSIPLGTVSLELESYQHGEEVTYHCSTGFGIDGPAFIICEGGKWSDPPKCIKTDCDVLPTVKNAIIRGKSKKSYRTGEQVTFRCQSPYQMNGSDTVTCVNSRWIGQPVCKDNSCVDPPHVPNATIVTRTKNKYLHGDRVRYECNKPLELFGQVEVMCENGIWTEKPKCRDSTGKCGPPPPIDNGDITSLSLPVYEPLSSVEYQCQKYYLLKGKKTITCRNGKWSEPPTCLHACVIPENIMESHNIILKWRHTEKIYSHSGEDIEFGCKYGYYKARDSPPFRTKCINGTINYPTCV

B1: GST tagged CspZ (residue 20 to 236 of CspZ from B. burgdorferi strain B31) (other)
chain: DVSRLNQRNINELKIFVEKAKYYSIKLDAIYNECTGAYNDIMTYSEGTFSDQSKVNQAISIFKKDNKIVNKFKELEKIIEEYKPMFLSKLIDDFAIELDQAVDNDVSNARHVADSYKKLRKSVVLAYIESFDVISSKFVDSKFVEASKKFVNKAKEFVEENDLIALECIVKTIGDMVNDREINSRSRYNNFYKKEADFLGAAVELEGAYKAIKQTLL
notes: also called wild type CspZ; CRASP-2; not shown: glutathione-S-transferase (GST) tag encoded by plasmid pGEX-6P1
Regarding B1, the binding result is given as “binds”.
